Measured values taken from patent publication US20250170255A1 (Daiichi Sankyo, published 2025).

How the values were obtained:
[1] = target: T1, TROP2 on FaDu cells (human, UniProt P09758 27-323); experiment: cell-based or functional assay
T1 sequence (looked up): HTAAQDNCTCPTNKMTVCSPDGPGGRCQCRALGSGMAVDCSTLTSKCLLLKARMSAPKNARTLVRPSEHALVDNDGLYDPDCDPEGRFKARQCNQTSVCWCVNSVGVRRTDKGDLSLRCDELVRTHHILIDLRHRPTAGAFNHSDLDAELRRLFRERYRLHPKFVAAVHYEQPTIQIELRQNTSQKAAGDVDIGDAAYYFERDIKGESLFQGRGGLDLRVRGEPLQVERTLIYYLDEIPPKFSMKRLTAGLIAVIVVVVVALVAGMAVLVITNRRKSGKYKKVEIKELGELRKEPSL

[2] = target: T2, biotinylated human TROP2 antigen (human, UniProt P09758 27-274, C-terminal Avi tag sequence biotinylated); experiment: ELISA pH 7.5 against pH 5.5
T2 construct: extracellular domain
T2 sequence (looked up): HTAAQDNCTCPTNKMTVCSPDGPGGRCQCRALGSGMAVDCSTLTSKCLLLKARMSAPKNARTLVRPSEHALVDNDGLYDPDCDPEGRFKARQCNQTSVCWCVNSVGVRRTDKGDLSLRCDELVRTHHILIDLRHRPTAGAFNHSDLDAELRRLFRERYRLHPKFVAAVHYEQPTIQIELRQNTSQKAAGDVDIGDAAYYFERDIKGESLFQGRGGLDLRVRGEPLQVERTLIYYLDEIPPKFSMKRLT

[3] = target: T2, biotinylated human TROP2 antigen; experiment: ELISA, immobilised biotinylated human TROP2 antigen, chemiluminescence; pH 7.5
[4] = target: T2, biotinylated human TROP2 antigen; experiment: ELISA with and without MMP1
[5] = target: T2, biotinylated human TROP2 antigen; experiment: ELISA, immobilised biotinylated human TROP2 antigen, chemiluminescence; after MMP1 pre-treatment (mask linker cleaved)
[6] = target: T2, biotinylated human TROP2 antigen; experiment: ELISA, immobilised biotinylated human TROP2 antigen, chemiluminescence; pH 5.5
[7] = target: T2, biotinylated human TROP2 antigen; experiment: ELISA, immobilised biotinylated human TROP2 antigen, chemiluminescence
Experimental: (§1) NeutrAvidin (Thermo Fisher Scientific) diluted to 1 μg/ml with PBS was added at 50 μl/well to a 96-well Maxi-sorp plate (Black, Nunc) and immobilized at 4° C. overnight. The plate was washed with PBS containing 0.05% (w/v) Tween-20 (BioRad) (ELISA buffer) and then blocked with Blocker Casein (Thermo Fisher Scientific). The plate was washed with ELISA buffer, the biotinylated human TROP2 antigen (Accession Number: P09758; the extracellular domain was purified by the method known to a person skilled in the art and the C-terminal Avi tag sequence was then biotinylated) diluted to 1 μg/ml with PBS was added at 50 μl/well, and the resultant was then agitated for 30 minutes at room temperature. […] The plate was washed with ELISA buffer, 50 μl of the horseradish peroxidase (HRP)-labeled anti-human IgG antibody (Jackson Immuno Research Laboratories) diluted to 2,500-fold with ELISA buffer was added, and the resultant was then agitated for 30 minutes at room temperature. The plate was washed with ELISA buffer, the SuperSignal Pico ELISA chemiluminescent substrate (Thermo Fisher Scientific) was added, and chemiluminescence 10 minutes thereafter was then assayed using a plate reader.

[8] = target: T2, biotinylated human TROP2 antigen; experiment: ELISA, immobilised biotinylated human TROP2 antigen, chemiluminescence; without MMP1
Experimental: as §1

[9] = target: T2, biotinylated human TROP2 antigen; experiment: ELISA, immobilised biotinylated human TROP2 antigen, chemiluminescence; after MMP1 pre-treatment
Experimental: as §1

[10] = target: T2, biotinylated human TROP2 antigen; experiment: ELISA, immobilised biotinylated human TROP2 antigen, chemiluminescence; pH 7.5; remark: listed apart in the source
[11] = target: T2, biotinylated human TROP2 antigen; experiment: ELISA, immobilised biotinylated human TROP2 antigen, chemiluminescence; pH 6.5
[12] = target: T2, biotinylated human TROP2 antigen; experiment: ELISA, immobilised biotinylated human TROP2 antigen, chemiluminescence; pH 7.5; remark: listed apart in the source
Experimental: (§2) The plate was washed with PBS containing 0.05% (w/v) Tween-20 (BioRad) (ELISA buffer) and then blocked with Blocker Casein (Thermo Fisher Scientific). The plate was washed with ELISA buffer, the biotinylated human TROP2 antigen (Accession Number: P09758; the extracellular domain was purified by the method known to a person skilled in the art and the C-terminal Avi tag sequence was then biotinylated) diluted to 1 μg/ml with PBS was added at 50 μl/well, and the resultant was then agitated for 30 minutes at room temperature. […] The plate was washed with ELISA buffer, 50 μl of the horseradish peroxidase (HRP)-labeled anti-human IgG antibody (Jackson Immuno Research Laboratories) diluted to 2,500-fold with ELISA buffer was added, and the resultant was then agitated for 30 minutes at room temperature. The plate was washed with ELISA buffer, the SuperSignal Pico ELISA chemiluminescent substrate (Thermo Fisher Scientific) was added, and chemiluminescence 10 minutes thereafter was then assayed using a plate reader. […]

[13] = target: T2, biotinylated human TROP2 antigen; experiment: as above; remark: listed apart in the source
Experimental: as §2

[14] = target: T2, biotinylated human TROP2 antigen; experiment: ELISA, immobilised biotinylated human TROP2 antigen, chemiluminescence; after MMP1 pre-treatment (mask linker cleaved); remark: listed apart in the source
Experimental: as §1

[15] = target: T2, biotinylated human TROP2 antigen; experiment: ELISA, immobilised biotinylated human TROP2 antigen, chemiluminescence; without MMP1; remark: listed apart in the source
Experimental: as §1

[16] = target: T2, biotinylated human TROP2 antigen; experiment: ELISA, immobilised biotinylated human TROP2 antigen, chemiluminescence; pH 5.5; remark: listed apart in the source
[17] = target: T2, biotinylated human TROP2 antigen; experiment: ELISA, immobilised biotinylated human TROP2 antigen, chemiluminescence; pH 7.5; remark: listed apart in the source
[18] = target: T2, biotinylated human TROP2 antigen; experiment: ELISA, immobilised biotinylated human TROP2 antigen, chemiluminescence; pH 5.5; remark: listed apart in the source
Experimental: as §2

[19] = target: T2, biotinylated human TROP2 antigen; experiment: ELISA, immobilised biotinylated human TROP2 antigen, chemiluminescence; pH 7.5; remark: listed apart in the source
Experimental: as §2

[20] = target: T2, biotinylated human TROP2 antigen; experiment: as above; remark: listed apart in the source
Experimental: as §2

[21] = target: T2, biotinylated human TROP2 antigen; experiment: ELISA, immobilised biotinylated human TROP2 antigen, chemiluminescence; pH 5.5; remark: listed apart in the source
[22] = target: T2, biotinylated human TROP2 antigen; experiment: ELISA, immobilised biotinylated human TROP2 antigen, anti-FLAG-HRP detection; without MMP1
Experimental: (§3) NeutrAvidin (Thermo Fisher Scientific) diluted to 1 μg/ml with PBS was added at 50 μl/well to a 96-well Maxi-sorp plate (Black, Nunc) and immobilized at 4° C. overnight. The plate was washed with PBS containing 0.05% (w/v) Tween-20 (BioRad) (ELISA buffer) and then blocked with Blocker Casein (Thermo Fisher Scientific). The plate was washed with ELISA buffer, the biotinylated human TROP2 antigen (Accession Number: P09758; the extracellular domain was purified by the method known to a person skilled in the art and the C-terminal Avi tag sequence was then biotinylated) diluted to 1 μg/ml with PBS was added at 50 μl/well, and the resultant was then agitated for 30 minutes at room temperature. […] The plate was washed with ELISA buffer, the SuperSignal Pico ELISA chemiluminescent substrate (Thermo Fisher Scientific) was added, and chemiluminescence 10 minutes thereafter was then assayed using a plate reader.
(§4) The resultant was then added to the plate comprising the human TROP2 antigen immobilized thereon at 50 μl/well. The bound scFv was detected using the HRP-labeled anti-FLAG antibody (Sigma-Aldrich) diluted to 5,000-fold with ELISA buffer.

[23] = target: T2, biotinylated human TROP2 antigen; experiment: ELISA, immobilised biotinylated human TROP2 antigen, anti-FLAG-HRP detection; after MMP1 pre-treatment (mask linker cleaved)
Experimental: as §3, §4

[24] = target: T2, biotinylated human TROP2 antigen; experiment: ELISA, anti-FLAG detection, with and without MMP1
Experimental: as §4
The antibody was adjusted to 1 μM with the use of MMP buffer, MMP1 was added to the final concentration of 1 μM or 0 μM, and the reaction was allowed to proceed at 37° C. for 15 minutes. Thereafter, the antibody with the concentration thereof being adjusted with ELISA buffer was added to the wells.

[25] = target: T2, biotinylated human TROP2 antigen; experiment: ELISA, immobilised biotinylated human TROP2 antigen, anti-FLAG-HRP detection; after MMP1 pre-treatment (mask linker cleaved); remark: listed apart in the source
Experimental: as §3, §4

B1: MHT1808-PBD-ADC (antibody, human IgG1, kappa)
heavy: not shown
light: DIQMTQSPSSLSASVGDRVTITCKASQDVSTAVAWYQQKPGKAPKLLIYSASYRYTGVPSRFSGSGSGTDFTLTISSLQPEDFAVYYCQQHYITPLTFGQGTKLEIKRTVAAPSVFIFPPSDEQLKSGTASVVCLLNNFYPREAKVQWKVDNALQSGNSQESVTEQDSKDSTYSLSSTLTLSKADYEKHKVYACEVTHQGLSSPVTKSFNRGEC
modifications: N297 glycan remodelled to azide-bearing MSG1-type glycan and conjugated to Linker 2 (PBD drug linker); average number of drugs bound 1.9
In the case of B1, the “in vitro growth inhibitory activity on FaDu cells, EC50 ratio (pH 7.4/pH 5.5)” value [1] is reported as 10.7.

B2: anti-TROP2 masked antibody MHT1811 (antibody)
heavy: not shown
light: B1 light
notes: Full-length entries
In the case of B2, the “EC50 ratio (neutral pH conditions/acidic pH conditions)” value [2] is reported as 28.1, the “EC50 (read off the curve)” value [3] is reported as roughly 30 nM and the “EC50 ratio (without the addition of MMP1/with the addition of MMP1)” value [4] is reported as 48.4. For the same binder, the “EC50 (read off the curve)” value [5] was roughly 0.6 nM and the “EC50 (read off the curve)” value [6] was roughly 1 nM.

B3: MHT1221-PBD-ADC (antibody, human IgG1, kappa)
heavy: not shown
light: B1 light
modifications: N297 glycan remodelled to azide-bearing MSG1-type glycan and conjugated to Linker 2 (PBD drug linker); average number of drugs bound 1.9
With B3 the “in vitro growth inhibitory activity on FaDu cells, EC50 ratio (pH 7.4/pH 5.5)” value [1] was 1.9.

B4: anti-TROP2 antibody HT1-11 (antibody)
heavy: not shown
light: B1 light
notes: Known antibody of WO 2015/098099; Full-length entries
B4 was tested, and the “EC50 (read off the curve)” value [7] was roughly 0.6 nM, the “EC50 (read off the curve)” value [8] was roughly 0.5 nM and the “EC50 (read off the curve)” value [9] was roughly 0.5 nM.

B5: anti-TROP2 masked antibody MHT1805 (antibody)
heavy: not shown
light: B1 light
notes: His cluster linker; Full-length entries
In the case of B5, the “EC50 ratio (neutral pH conditions/acidic pH conditions)” value [2] is reported as 2.3.

B6: anti-TROP2 masked antibody MHT1806 (antibody, human IgG1, kappa)
heavy: not shown
light: B1 light
B6 was tested, and the “EC50 ratio (neutral pH conditions/acidic pH conditions)” value [2] was 38.8, the “EC50 (read off the curve)” value [10] was roughly 200 nM and the “EC50 (read off the curve)” value [11] was roughly 50 nM. The “EC50 (read off the curve)” value [12] was roughly 200 nM.

B7: anti-TROP2 masked antibody MHT1804 (antibody)
heavy: not shown
light: B1 light
notes: as for B5
For B7, the “EC50 ratio (neutral pH conditions/acidic pH conditions)” value [2] was 3.6.

B8: anti-TROP2 masked antibody MHT1221 (antibody)
heavy: not shown
light: B1 light
notes: No His cluster; Full-length entries
In the case of B8, the “EC50 ratio (neutral pH conditions/acidic pH conditions)” value [2] is reported as 1.7 and the “EC50 (read off the curve)” value [13] is reported as roughly 50 nM.

B9: anti-TROP2 masked antibody MHT1007 (antibody)
heavy: not shown
light: B1 light
notes: IgG-type; MHT1001 mimotope peptide and MMP cleavable linker fused to the heavy chain; Full-length entries
B9 was tested, and the “EC50 (read off the curve)” value [14] was roughly 0.3 nM, the “EC50 (read off the curve)” value [15] was roughly 30 nM and the “EC50 ratio of binding intensity (without MMP1 / with MMP1)” value (“EC50 ratio … (without MMP1 / with MMP1)” below) [4] was 104.

B10: anti-TROP2 masked antibody MHT1810 (antibody)
heavy: not shown
light: B1 light
notes: His at every other position in the linker; Full-length entries; also called HMT1810
B10 was tested, and the “EC50 (read off the curve)” value [16] was roughly 7 nM, the “EC50 ratio (neutral pH conditions/acidic pH conditions)” value [2] was 7.8 and the “EC50 (read off the curve)” value [17] was roughly 60 nM.

B11: anti-TROP2 masked antibody MHT1809 (antibody)
heavy: not shown
light: B1 light
notes: as for B5
With B11 the “EC50 (read off the curve)” value [18] was roughly 5 nM, the “EC50 ratio (neutral pH conditions/acidic pH conditions)” value [2] was 11.4 and the “EC50 (read off the curve)” value [19] was roughly 60 nM.

B12: anti-TROP2 masked antibody MHT1803 (antibody)
heavy: not shown
light: B1 light
notes: as for B5
With B12 the “EC50 (read off the curve)” value [20] was roughly 100 nM, the “EC50 (read off the curve)” value [21] was roughly 30 nM and the “EC50 ratio (neutral pH conditions/acidic pH conditions)” value [2] was 3.9.

B13: MHT1002 (scFv)
scFv: AMGYLALKHPWPGLAENSGSGGGGSVLVPMAMMASGGSDVNSDIQMTQSPSSLSASVGDRVTITCKASQDVSTAVAWYQQKPGKAPKLLIYSASYRYTGVPSRFSGSGSGTDFTLTISSLQPEDFAVYYCQQHYITPLTFGQGTKLEIKRGGGGSGGGGSGGGGSQVQLVQSGAEVKKPGASVKVSCKASGYTFTTAGMQWVRQAPGQGLEWMGWINTHSGVPKYAEDFKGRVTISADTSTSTAYLQLSSLKSEDTAVYYCARSGFGSSYWYFDVWGQGTLVTVSSGAPSGDYKDDDDKGAAAHHHHHH
notes: Mimotope peptide, MMP cleavable linker, HT1-11 scFv, FLAG tag, His tag
With B13 the “EC50 (read off the curve)” value [22] was roughly 10 nM, the “EC50 (read off the curve)” value [23] was roughly 3 nM and the “EC50 ratio … (without MMP1 / with MMP1)” value [24] was 4.3.

B14: MHT1001 (scFv)
scFv: AMGYLALKHPWPGLAENSGSGGGGSVLVPMAMMASGGSDVNSQVQLVQSGAEVKKPGASVKVSCKASGYTFTTAGMQWVRQAPGQGLEWMGWINTHSGVPKYAEDFKGRVTISADTSTSTAYLQLSSLKSEDTAVYYCARSGFGSSYWYFDVWGQGTLVTVSSGGGGSGGGGSGGGGSDIQMTQSPSSLSASVGDRVTITCKASQDVSTAVAWYQQKPGKAPKLLIYSASYRYTGVPSRFSGSGSGTDFTLTISSLQPEDFAVYYCQQHYITPLTFGQGTKLEIKRGAPSGDYKDDDDKGAAAHHHHHH
For B14, the “EC50 (read off the curve)” value [25] was roughly 8 nM and the “EC50 ratio … (without MMP1 / with MMP1)” value [24] was 7.9.
